Results reported in patent US5318897.
One block for each molecule: values may come before it.

Key:
[1] = molecular target: T1, Boc-L-R-R-MCA
T1 sequence (peptide, N-terminal Boc; C-terminal methylcoumarinamide (MCA)): LRR

[2] = molecular target: T2, Z-R-R-MCA
T2 sequence (peptide, N-terminal Z; C-terminal methylcoumarinamide (MCA)): RR

[3] = molecular target: P-F-R-MCA
[4] = molecular target: T3, vasoactive intestinal peptide (VIP); experiment: binding studies under conditions that did not permit VIP hydrolysis (high ionic strength)
T3 sequence (peptide, C-terminal amide (--CO--NH2)): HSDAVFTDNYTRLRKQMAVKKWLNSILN

[5] = molecular target: T3, vasoactive intestinal peptide (VIP)

- fluorescence of the leaving group methylcoumarinamide [1]: 263 units
- fluorescence of the leaving group methylcoumarinamide [2]: 179 units
- fluorescence of the leaving group methylcoumarinamide [3]: 194 units
Molecule: bovine pancreatic trypsin (from UniProt P00760) (enzyme)

- Kd [4]: 3.4 nM
- Km [5]: 2 nM
- kcat [5]: 1.33e-06 s⁻¹
- fluorescence of the leaving group methylcoumarinamide [1]: < 1 unit
- fluorescence of the leaving group methylcoumarinamide [2]: < 1 unit
B1: monoclonal antibody c23.5 (IgG2a, kappa) (antibody, V domains shown)
VH: EVQLQESGGGLVKPGGSLKLSCAASGFTFSIYGMSWFRQTPEKRLEWVATISGGDTYTYYPDSVKGRFTISRDNAKNNLFLQMSSLRSEDTALYFCGRGIAYWGQGTLVTVSA
VL: DIVLTQSPASQSASLGESVTITCLASQTIGTWLPWYQQKLGKSPQLLIYAATSLADGVPSRFSGSGSATKFSFKISSLQAEDFVSYNCQHLYSTPLTFGGGTKL
